Data published in publication PMC9118924.

The substances below were run against arrestin-3 fused to nanoluciferase (UniProt P32121) (assay: arrestin-3 interaction assay (hGPR84-eYFP with arrestin-3-nanoluciferase), 2-HTP concentration-response). Conditions: value read at the highest 2-HTP concentration, Log [2-HTP] M = -4; parent: est. 100; read off a plot.

percent of parent	Substance
75 % of WT	FLAG-human GPR84-eYFP (from UniProt Q9NQS5) pmCt (the two serine residues of the C-terminal tail converted to alanine; positions not printed legibly)
28 % of WT	FLAG-human GPR84-eYFP (from UniProt Q9NQS5) pmIL3 (all 21 serine and threonine residues of the third intracellular loop converted to alanine; positions not printed legibly)
28 % of WT	FLAG-human GPR84-eYFP (from UniProt Q9NQS5) pmIL3-Ct (all 21 serines/threonines of the third intracellular loop and the two serines of the C-terminal tail converted to alanine; positions not printed legibly)
